# Reference: paper PMC8960874
# Molecular target: Clone 16 (Clone 6-KiH-Clone 2) bispecific antibody (mouse | human) [IgG part: P01857]
# Experiment: SPR
# Conditions: domain or fragment
substance,measurement,value
SARS-CoV-2 spike receptor binding domain (RBD) protein with a C-terminal hexahistidine tag (from UniProt P0DTC2 319-541),Kd,2.95 nM
same,koff,0.00461 s⁻¹
